Common to all, as to experiment: SPR
Experiment [1] addresses recombinant full length GST-TIMAP (wt), non-phosphorylated.
Experiment [2] addresses mono-thiophosphorylated GST-TIMAP (wt).
For experiment [3], the target named is recombinant full length GST-TIMAP (wt), non-phosphorylated. This is another data set of the same source.
Experiment [4] concerns the target double-thiophosphorylated GST-TIMAP (wt).

Like-named read-outs stand apart in the source and are kept apart here.

Broadly, the koff is a measure of how fast the partners let go of each other. One may read the kon as a measure of how fast the partners come together.

Take “recombinant PP1cβ (catalytic subunit of protein phosphatase 1, β isoform) (from UniProt P62140 1-327) (enzyme)”: the Ka in experiment [1] was 1.8e+06 M⁻¹; in experiment [2], 7.39e+06 M⁻¹; in experiment [3], 1.28e+06 M⁻¹; in experiment [4], 1.93e+06 M⁻¹. The koff stood at 0.000556 s⁻¹ in experiment [2], 0.00366 s⁻¹ in experiment [3] and 0.000522 s⁻¹ in experiment [4]. The values for the kon in experiment [2], in experiment [3] and in experiment [4] were 4110 M⁻¹ s⁻¹, 4680 M⁻¹ s⁻¹ and 1010 M⁻¹ s⁻¹, respectively.

The values are drawn from paper PMC3695725.
